B1: mRNA-splicing (parent)
chain: AGUUGCUGCUGGGAGCUCCAGCACAGUGAAAUGGACAGAAGGGCAGAGCAA

Variants of: B1
Test: exon inclusion enrichment index; higher = more inclusion; WT1 exon 5 minigene, HEK293

Variant | exon inclusion enrichment index
AGUUGAAGAAGGGAGCUCCAGCACAGUGAAAUGGACAGGCGGGCAGAGCAA | 1.22
AGUUGAAGAAGGGAGCUCCAGCACAGUGAAAUGGACAGGGGGGCAGAGCAA | 0.0665
AGUUGAAGAAGGGAGCUCCAGCACAGUGAAAUGGUGAGAAGGGCAGAGCAA | 0.054
AGUUGAAGAAGGGAGCUCCAGCACAGUGAAAUGGUUAGAAGGGCAGAGCAA | 0.00621
AGUUGAAGAAGGGAGCUCCAGCACAGUGAAAUGGUAAGAAGGGCAGAGCAA | 0.00157
AGUUGAAGAAGGGAGCUCCAGCACAGUGAAAUGGACAGGAGGGCAGAGCAA | 0.404
AGUUGAAGAAGGGAGCUCCAGCACAGUGAAAUGGACAGCAGGGCAGAGCAA | 0.201
AGUUGAAGAAGGGAGCUCCAGCACAGUGAAAUGGACAGUAGGGCAGAGCAA | 0.0237
AGUUGAAGAAGGGAGGACCAGCACAGUGAAAUGGACAGAAGGGCAGAGCAA | 0.533
AGUUGAAGAAGGGAGGGCCAGCACAGUGAAAUGGACAGAAGGGCAGAGCAA | 0.02
AGUUGAAGAAGGGAGGCCCAGCACAGUGAAAUGGACAGAAGGGCAGAGCAA | 0.22
AGUUGAAGAAGGGAGCUUGAGCACAGUGAAAUGGACAGAAGGGCAGAGCAA | 0.119
AGUUGAAGAAGGGAGCUUAAGCACAGUGAAAUGGACAGAAGGGCAGAGCAA | 0.046
AGUUGAAGAAGGGAGCUUUAGCACAGUGAAAUGGACAGAAGGGCAGAGCAA | 0.00807
AGUUGAAGAAGGGAGCUCCAGCACAGUGAAAUGGACAGAGAGGCAGAGCAA | 0.23
AGUUGAAGAAGGGAGCUCCAGCACAGUGAAAUGGACAGAGUGGCAGAGCAA | 0.576
AGUUGAAGAAGGGAGCUCCAGCACAGUGAAAUGGACAGAGCGGCAGAGCAA | 2.13
AGUUGAAGAAGGGAGUACCAGCACAGUGAAAUGGACAGAAGGGCAGAGCAA | 0.291
AGUUGAAGAAGGGAGUCCCAGCACAGUGAAAUGGACAGAAGGGCAGAGCAA | 0.225
AGUUGAAGAAGGGAGUGCCAGCACAGUGAAAUGGACAGAAGGGCAGAGCAA | 0.212
AGUUGAAGAAGGGAGCUCCAGACCAGUGAAAUGGACAGAAGGGCAGAGCAA | 1.39
AGUUGAAGAAGGGAGCUCCAGCACAGUGAAAUGGACAGAAGGGCCCAGCAA | 0.542
AGUUGAAGAAGGGAGCUCCAGCACAGUGAAAUGGACAGAAGGGCCAAGCAA | 0.367
AGUUGAAGAAGGGAGCUCCAGCACAGUGAAAUGGACAGAAGGGCCUAGCAA | 0.191
AGUUGAAGAAGGGAGCUCCAGCACAGUGAAAUGGACAGAAGGGCGUAGCAA | 0.543
AGUUGAAGAAGGGAGCUCCAGCACAGUGAAAUGGACAGAAGGGCGAAGCAA | 2.3

Variant | exon inclusion enrichment index
AGUUGAAGAAGGGAGCUCCAGCACAGUGAAAUGGACAGAAGGGCGCAGCAA | 1.17
AGUUGAAGAAGGGAGCUGAAGCACAGUGAAAUGGACAGAAGGGCAGAGCAA | 0.924
AGUUGAAGAAGGGAGCUGUAGCACAGUGAAAUGGACAGAAGGGCAGAGCAA | 0.076
AGUUGAAGAAGGGAGCUGGAGCACAGUGAAAUGGACAGAAGGGCAGAGCAA | 0.718
AGUUGAAGAAGGGAGCUCCAGCACAGUGAAAUGGACAGAAGGGCAGUGCAA | 0.546
AGUUGAAGAAGGGAGCUCCAGCACAGUGAAAUGGACAGAAGGGCAGGGCAA | 0.13
AGUUGAAGAAGGGAGCUCCAGCACAGUGAAAUGGACAGAAGGGCAGCGCAA | 1.15
AGUUGAAGAAGGGAGCUCCAGCACAGUGAAAUGGACAGAAGGGCAGGCCAA | 0.251
AGUUGAAGAAGGGAGCUCCAGCACAGUGAAAUGGACAGAAGGGCAGGUCAA | 0.0862
AGUUGAAGAAGGGAGCUCCAGCACAGUGAAAUGGACAGAAGGGCAGGACAA | 0.364
AGUUGAAGAAGGGAGCUCCAGCACAGUGAAAUGGACAGAAGGGCUUAGCAA | 0.185
AGUUGAAGAAGGGAGCUCCAGCACAGUGAAAUGGACAGAAGGGCUAAGCAA | 0.485
AGUUGAAGAAGGGAGCUCCAGCACAGUGAAAUGGACAGAAGGGCUCAGCAA | 0.614
AGUUGAAGAAGGGAGCUCCAGCACAGUGAAAUGGACGUAAGGGCAGAGCAA | 0.29
AGUUGAAGAAGGGAGCUCCAGCACAGUGAAAUGGACGAAAGGGCAGAGCAA | 0.801
AGUUGAAGAAGGGAGCUCCAGCACAGUGAAAUGGACGCAAGGGCAGAGCAA | 0.984
AGUUGAAGAAGGGAGCUCUGGCACAGUGAAAUGGACAGAAGGGCAGAGCAA | 0.121
AGUUGAAGAAGGGAGCUCUUGCACAGUGAAAUGGACAGAAGGGCAGAGCAA | 0.19
AGUUGAAGAAGGGAGCUCUCGCACAGUGAAAUGGACAGAAGGGCAGAGCAA | 0.579
AGUUGAAGAAGGGAGCUCCAGCACAGUGAAAUGGACAGACCGGCAGAGCAA | 1.98
AGUUGAAGAAGGGAGCUCCAGCACAGUGAAAUGGACAGACUGGCAGAGCAA | 0.431
AGUUGAAGAAGGGAGCUCCAGCACAGUGAAAUGGACAGACAGGCAGAGCAA | 0.218
AGUUGAAGAAGGGAGUUCCAGCACAGUGAAAUGGACAGAAGGGCAGAGCAA | 0.472
AGUUGAAGAAGGGAGAUCCAGCACAGUGAAAUGGACAGAAGGGCAGAGCAA | 0.669
AGUUGAAGAAGGGAGGUCCAGCACAGUGAAAUGGACAGAAGGGCAGAGCAA | 0.188

Reference: the RNAGym collection of RNA variant scans (doi:10.1101/gr.219683.116)
